Measured values taken from US20080050380A1.

Columns and labels:
[1] = target: human TANGO 268 (glycoprotein VI, GPVI), full length (human) (UniProt Q9HCN6); test: flow cytometry on washed human platelets
[2] = target: soluble human GPVI-Fc (the extracellular domain of GPVI fused to Fc) (human) (UniProt Q9HCN6); test: 125I-convulxin binding to GPVI-Fc captured on mAb 1P10.2, 10 µg/ml antibody; convulxin is the blocked partner
[3] = target: baboon GPVI on baboon platelets (baboon); test: flow cytometry on washed baboon platelets
[4] = target: soluble human GPVI-Fc (the extracellular domain of GPVI fused to Fc) (human) (UniProt Q9HCN6); test: SPR (BIAcore), GPVI-Fc coupled to the chip, bivalent model
[5] = target: soluble human GPVI-Fc (the extracellular domain of GPVI fused to Fc) (human) (UniProt Q9HCN6); test: ELISA, 5 nM GPVI-Fc with 10 µg/ml antibody on collagen-coated wells; collagen is the blocked partner
collagen type I = test: cell-based or functional assay

soluble human GPVI-Fc (the extracellular domain of GPVI fused to Fc) (human), sequence (Q9HCN6 other isoform, or with tags, fused parts or gaps): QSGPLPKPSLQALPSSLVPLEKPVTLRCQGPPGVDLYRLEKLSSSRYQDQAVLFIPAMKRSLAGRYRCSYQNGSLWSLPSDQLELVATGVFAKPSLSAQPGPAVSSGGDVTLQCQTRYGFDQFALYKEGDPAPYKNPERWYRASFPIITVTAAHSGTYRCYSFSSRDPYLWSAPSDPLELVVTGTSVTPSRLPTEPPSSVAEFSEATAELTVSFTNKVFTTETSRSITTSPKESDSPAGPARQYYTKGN
human TANGO 268 (glycoprotein VI, GPVI), full length (human), sequence (Q9HCN6 other isoform, or with tags, fused parts or gaps): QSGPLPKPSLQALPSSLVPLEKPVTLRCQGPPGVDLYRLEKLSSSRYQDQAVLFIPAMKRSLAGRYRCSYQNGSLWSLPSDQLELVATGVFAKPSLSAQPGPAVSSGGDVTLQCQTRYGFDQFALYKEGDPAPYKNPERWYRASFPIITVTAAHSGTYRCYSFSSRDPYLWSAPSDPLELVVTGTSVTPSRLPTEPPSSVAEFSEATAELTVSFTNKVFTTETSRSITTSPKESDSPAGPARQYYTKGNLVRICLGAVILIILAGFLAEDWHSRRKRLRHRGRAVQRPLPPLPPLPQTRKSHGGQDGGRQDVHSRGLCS

| concentration of rhusGPVI:Fc needed to inhibit collagen-induced activation, against that needed for Cvx (collagen type I) | Substance | Human fluorescence intensity [1] | Human platelets % positive [1] | % of Inhibition of convulxin binding of hrGPVI [2] | Baboon fluorescence intensity [3] | Baboon platelets % positive [3] | Kd [4] | % of Inhibition of collagen binding of hrGPVI [5] |
| --- | --- | --- | --- | --- | --- | --- | --- | --- |
| – | mouse monoclonal antibody produced by hybridoma cell line 9012.2 | 14 | 21% | 75% | 18 | 33.8% | 18 nM | 58% |
| 10 fold | recombinant human soluble GPVI:Fc fusion protein (rhusGPVI:Fc) (from UniProt Q9HCN6 21-269) | – | – | – | – | – | – | – |
